Data published in patent publication US8507656B2, “Stabilized angiopoietin-2 antibodies and uses thereof” (MedImmune Limited, priority 2008, dated 2013).
Entries after “also recorded” stand apart in the source; their conditions may differ. Blank lines part the entries; values can stand above or below the molecule they belong to.

How the values were obtained:
Tie2 = Tie2 (Homo sapiens, UniProt Q02763); conditions: Maisonpierre et al., Science 277:55-60 (1997); read-out: affinity (Kd) for Tie2; cited from earlier work
H460 xenograft tumors = type: in vivo; conditions: 3.19.3 10 mg/kg 2×wk i.p., AZD4877 10 mg/kg q4dx2 i.p., combination of both
Procedure: The anti-tumor activity of 3.19.3 was evaluated in combination with AZD4877 in the
H460 xenograft model of lung cancer. H460 cells were cultured in flasks as routine until the cells reached sub-confluence. Cell suspensions containing approximately 3×10E6 cells were injected subcutaneously into the right flank of male NCr nu/nu mice. When the tumor volume reached 200 mm^3, the mice were randomized in treatment groups of 8-10 mice and the treatments were initiated. 3.19.3 (10 mg/kg) in saline was injected intraperitoneally, twice per week for 2 weeks. AZD4877 (10 mg/kg) was administered by intraperitoneal administration following a q4d schedule. The dimensions of each tumor and body weights were measured at least twice per week. The volume of the tumor was calculated as: Volume=Length×(Width)×0.5 (cm^3).

[1] = system: glucose 6 phosphate isomerase (G6PI) arthritis; assay: G6PI arthritis disease model, prophylactic; type: in vivo, male DBA/1J mice; conditions: for clinical signs of disease progression (arthritic score) (in words): single agents
[2] = system: glucose 6 phosphate isomerase (G6PI) arthritis; assay: G6PI arthritis disease model, therapeutic; type: in vivo, male DBA/1J mice; conditions: after onset of clinical disease, MEDI1/5 alone, etanercept both doses
Procedure: The effect of treatment with MEDI 1/5 with or without etanercept was evaluated following onset of clinical disease in the glucose 6 phosphate isomerase (G6PI) arthritis disease model. G6PI-induced arthritis was induced in male DBA/1J mice and animals dosed therapeutically with test treatments.
Materials and Methods: The mice in this study were prepared similarly as presented in Example 12.
Dosing: This was a rolling admissions study: once an animal reached a clinical score of 3.5 to 5.0, it was randomly assigned to treatment groups (as outlined below) and dosing began. The day of initial dosing became study day 0 for that animal. Treatment groups were similar to those presented in Example 12.
Termination: Study was terminated 12 days post treatment initiation. No further endpoints were assessed on these animals.

Ang-2 = target: T1, Ang-2 (Homo sapiens, UniProt O15123); assay: Competitive Tie-2 Fc/Ang2 ELISA; type: binding; conditions: competition with immobilized Tie-2; IgG1 or IgG2 format
T1 construct: purchased R & D Systems
T1 sequence (O15123 19-496): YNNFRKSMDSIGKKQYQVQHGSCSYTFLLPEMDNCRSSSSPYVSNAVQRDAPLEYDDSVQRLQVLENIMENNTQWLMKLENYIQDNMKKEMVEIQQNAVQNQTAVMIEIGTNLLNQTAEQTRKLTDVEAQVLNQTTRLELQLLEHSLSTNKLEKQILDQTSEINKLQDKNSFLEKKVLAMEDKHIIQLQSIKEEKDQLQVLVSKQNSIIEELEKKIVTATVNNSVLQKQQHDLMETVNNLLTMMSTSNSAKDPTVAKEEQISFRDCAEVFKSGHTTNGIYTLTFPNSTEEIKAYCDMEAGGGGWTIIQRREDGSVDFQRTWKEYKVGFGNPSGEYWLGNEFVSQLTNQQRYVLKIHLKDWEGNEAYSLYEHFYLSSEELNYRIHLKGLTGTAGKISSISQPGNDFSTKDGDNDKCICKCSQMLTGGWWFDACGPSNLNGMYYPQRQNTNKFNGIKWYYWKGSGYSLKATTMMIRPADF
Procedure: In this example the Ang-2 antibody, 3.19.3, and a modified 3.19.3 antibody comprising a C49T (MEDI1/5) substitution were analyzed for Ang-2 binding in a competitive ELISA format assay.
Competitive Tie-2 Fc/Ang2 ELISA: Maxisorp ELISA plates (Nunc, Rochester, N.Y.) were coated with 100 μl of 4 μg/ml Tie-2 Fc (R & D Systems, Minneapolis, Minn.) in 0.1M carbonate buffer pH 9.4 (Pierce, Rockford, Ill.) and incubated overnight at 4° C. The following day, plates were blocked for 1 hour at room temperature with 200 μl of phosphate buffered saline (PBS) (Invitrogen, Carlsbad, Calif.) containing 0.5% bovine serum albumin (BSA) (Sigma, St. Louis, Mo.) and 0.1% Tween-20 (Sigma, St. Louis, Mo.). Plates were washed 3 times with wash buffer (PBS containing 0.05% Tween-20). 50 μl of 11-point serial tertiary dilutions (30 μg/ml high concentration) of 3.19.3 or modified anti-Ang2 antibody were plated, with PBS as a negative control. For antibody capture, 50 μl of 200 ng/ml Biotin Ang2 (R & D Systems, Minneapolis, Minn.) were added and plates were incubated for 2 hours at room temperature. Plates were washed 3 times with wash buffer. Following the wash, 100 ul of 1:5000 streptavidin HRP (Pierce, Rockford, Ill.) dilution in wash buffer were added and incubated for 1 hour at room temperature. […] Optical densities were measured at 450 nm with a microplate reader (Molecular Devices, Sunnyvale, Calif.).

retinal angiogenesis = assay: Retinal vascularization in mouse pups; type: in vivo, CD1 pups
Procedure: […] At p10, pups were anesthetized with isoflurane and then perfused with 12.5 mg/ml FITC-dextran (Vector Labs). A small slit was made in the cornea and the entire eye was removed from the optic cup before placing into 10% neutral buffered formalin. After 1 hour fixation in formalin, eyes were briefly rinsed in PBS and then placed in a dish of PBS for dissection. Retinas were carefully dissected and cut into a clover leaf formation prior to mounting onto a glass slide with Vectashield (Vector Labs). Images of flatmounts were examined and acquired using fluorescence microscopy (Nikon) with attached digital camera system.

[3] = system: FGF2 mediated angiogenesis; assay: FGF2-induced Matrigel plug assay; type: in vivo, athymic mouse
Procedure: The anti-Ang-2 antibody, MEDI1/5 was evaluated for anti-angiogenic effects in a FGF2 (basic FGF)-induced Matrigel™ plug assay. Recombinant murine FGF2 (rmFGF basic; R&D Systems) was pre-mixed with Matrigel™ (reduced growth factor, phenol red-free; Trevigen) at 1 μg/ml. Each 5-6 week old female athymic mouse was subcutaneously implanted with 500 gl of FGF2/Matrigel™ mixture. Antibody MEDI1/5 was administered 10 minutes prior to FGF2/Matrigel™ implantation and continued every three days given intraperitoneal at 1, 10, and 20 mg/kg for a total of 3 doses. The extent of angiogenesis was assessed after 10 days by measuring dextran functioning vessels. Mice were intervenously injected with 100 gl FITC-Dextran (250,000MW; Sigma) at 25 mg/ml in saline. Twenty minutes post FITC-Dextran injection, mice are humanely euthanized and plugs dissected out. Plugs are then placed in lysing matrix tubes A (MP Biomedicals) containing 1 ml of PBS and homogenized on FastPrep machine (MP Biomedicals) for 60 seconds at 6.0 M/S. Samples were then centrifuged at 10,000 rpm for 5 minutes and supernatant collected. 200 μl of each sample (in duplicates) was then placed into a white, clear bottom 96 well plate and FITC output was read on EnVision instrument (Perkin Elmer).
For histology purposes, plugs were harvested and placed into 10% neutral-buffered formalin, processed and then paraffin embedded. The paraffin embedded tissues were then sectioned and stained with hematoxylin and eosin.

Tie2, sequence (Q02763 23-1124, species assumed): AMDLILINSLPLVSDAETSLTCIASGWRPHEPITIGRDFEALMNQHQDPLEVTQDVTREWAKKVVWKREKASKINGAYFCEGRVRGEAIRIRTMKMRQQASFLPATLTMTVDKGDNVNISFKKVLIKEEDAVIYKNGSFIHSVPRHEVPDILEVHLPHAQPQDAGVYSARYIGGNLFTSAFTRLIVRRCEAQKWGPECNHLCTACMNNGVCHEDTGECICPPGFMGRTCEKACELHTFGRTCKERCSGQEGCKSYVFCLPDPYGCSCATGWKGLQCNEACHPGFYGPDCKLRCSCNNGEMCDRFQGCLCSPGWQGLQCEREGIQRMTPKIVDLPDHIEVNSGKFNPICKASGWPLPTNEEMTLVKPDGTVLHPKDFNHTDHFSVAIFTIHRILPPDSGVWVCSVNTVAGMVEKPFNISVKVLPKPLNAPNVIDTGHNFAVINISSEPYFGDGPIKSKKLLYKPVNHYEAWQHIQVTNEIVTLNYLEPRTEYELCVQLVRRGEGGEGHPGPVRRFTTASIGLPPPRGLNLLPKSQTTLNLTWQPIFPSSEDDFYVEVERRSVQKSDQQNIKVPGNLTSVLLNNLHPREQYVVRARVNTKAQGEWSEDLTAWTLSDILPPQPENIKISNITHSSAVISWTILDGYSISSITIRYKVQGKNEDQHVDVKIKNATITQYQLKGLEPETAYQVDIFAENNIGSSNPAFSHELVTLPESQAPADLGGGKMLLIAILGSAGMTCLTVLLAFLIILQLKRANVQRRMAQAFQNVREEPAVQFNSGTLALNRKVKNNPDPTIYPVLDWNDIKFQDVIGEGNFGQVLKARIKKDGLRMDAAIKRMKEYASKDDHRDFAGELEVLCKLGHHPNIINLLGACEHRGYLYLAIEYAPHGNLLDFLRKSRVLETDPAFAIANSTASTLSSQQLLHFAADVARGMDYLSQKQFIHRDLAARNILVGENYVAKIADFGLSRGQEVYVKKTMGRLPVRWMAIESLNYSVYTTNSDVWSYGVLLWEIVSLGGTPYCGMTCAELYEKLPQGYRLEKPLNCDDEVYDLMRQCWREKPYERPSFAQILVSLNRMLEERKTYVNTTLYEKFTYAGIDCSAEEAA

Molecule: Ang-2: angiopoietin, ligand of Tie2; antigen of the antibodies
Kd (Tie2): 3 nM

Molecule: Cc1ccc(C(=O)N(CCCN)C(c2nc3snc(C)c3c(=O)n2Cc2ccccc2)C(C)C)cc1 (centres unmarked) [AZD4877]
% tumor growth inhibition (H460 xenograft tumors): 50%

Molecule: etanercept
% Disease free joints ([1]; 1 mg/kg etanercept, 1 mg/kg): 22%
% Disease free joints ([1]; 4 mg/kg etanercept, 4 mg/kg): 53%
% Disease free joints ([1]; 4 mg/kg etanercept, listed as enbrel, 4 mg/kg): 53%
clinical signs of disease progression (arthritic score) (in words) [1]: Reductions in clinical signs of disease progression; also recorded: reduction
clinical signs of disease progression (arthritic score) (in words) [2]: no effect on disease progression

B1: Ang-1: angiopoietin, ligand of Tie2 (protein, UniProt Q15389 16-498, looked up)
Angiopoietin-1: HIGCSNQRRSPENSGRRYNRIQHGQCAYTFILPEHDGNCRESTTDQYNTNALQRDAPHVEPDFSSQKLQHLEHVMENYTQWLQKLENYIVENMKSEMAQIQQNAVQNHTATMLEIGTSLLSQTAEQTRKLTDVETQVLNQTSRLEIQLLENSLSTYKLEKQLLQQTNEILKIHEKNSLLEHKILEMEGKHKEELDTLKEEKENLQGLVTRQTYIIQELEKQLNRATTNNSVLQKQQLELMDTVHNLVNLCTKEGVLLKGGKREEEKPFRDCADVYQAGFNKSGIYTIYINNMPEPKKVFCNMDVNGGGWTVIQHREDGSLDFQRGWKEYKMGFGNPSGEYWLGNEFIFAITSQRQYMLRIELMDWEGNRAYSQYDRFHIGNEKQNYRLYLKGHTGTAGKQSSLILHGADFSTKDADNDNCMCKCALMLTGGWWFDACGPSNLNGMFYTAGQNHGKLNGIKWHYFKGPSYSLRSTTMMIRPLDF
Kd (Tie2): 3 nM

binding profile for Ang-2 compared to 3.19.3 (in words) (Ang-2): very similar binding profile
B2: MEDI1/5: anti-Ang-2 antibody with MEDI1 light chain (SEQ ID No. 3) and MEDI5 heavy chain (SEQ ID No. 7); isotype not stated (antibody)
VH: QVQLVESGGGVVQPGRSLRLSCAASGFTFTNYGMHWVRQAPGKGLEWVAVISHDGNNKYYVDSVKGRFTISRDNSKNTLYLQMNSLRAEDTAVYYCAREGIDFWSGLNWFDPWGQGTLVTVSS
light: EIVLTQSPGTLSLSPGERATLSCRASQSITGSYLAWYQQKPGQAPRLLITGASSWATGIPDRFSGSGSGTDFTLTISRLEPEDFAVYYCQQYSSSPITFGQGTRLEIKRTVAAPSVFIFPPSDEQLKSGTASVVCLLNNFYPREAKVQWKVDNALQSGNSQESVTEQDSKDSTYSLSSTLTLSKADYEKHKVYACEVTHQGLSSPVTKSFNRGEC
extent of retina vasculature (in words) (retinal angiogenesis; MEDI1/5 0.3 mg/kg): extend to the outer edge of retina
retinal angiogenesis (in words) (retinal angiogenesis; MEDI1/5 0.3, 1.0 and 10 mg/kg i.p. at p1, p3, p5, retinas at p10): dose-dependent inhibition of retinal angiogenesis; also recorded: inhibited in a dose-dependent fashion
vessels in plugs, hematoxylin and eosin staining (in words) ([3]; FGF2+MEDI1/5 plugs vs FGF2 plugs alone): fewer vessels; also recorded: lower level of vascularization
amount of FITC-dextran present in plugs ([3]; MEDI1/5 1, 10, and 20 mg/kg i.p., 3 doses, FGF2 1 μg/ml plugs (FGF2 alone approximately 0.78 μg)): 0.05 to 3 µg
FITC-dextran content / angiogenesis in plugs (in words) ([3]; MEDI1/5 1, 10 or 20 mg/kg i.p., vs FGF2 plugs): significant reduction in FITC-dextran; also recorded: significant reduction in angiogenesis
% Disease free joints ([1]; 10 mg/kg MEDI1/5, 10 mg/ml Isotype control (so in the source), 10 mg/kg): 31%
clinical signs of disease progression (arthritic score) (in words) [1]: Reductions in clinical signs of disease progression; also recorded: reduction
clinical signs of disease progression (arthritic score) (in words) [2]: modest reductions in clinical signs of disease progression
